Source: the supplement of paper PMC7877785
± gives the uncertainty stated by the source.

Test: self-splicing fitness, log relative to wild type (ln ratio); higher = more splicing; Tetrahymena group I intron in knt gene, E. coli kanamycin selection, DiMSum; sequences stand for … in CUCUCU…GGAGGGAAAAGUUAUCAGGCAUGCACCUGGUAGCUAGUCUUUAAACCAAUAGAUUGCAUCGGUUUAAAAGGCAAGACCGUCAAAUUGCGGGAAAGGGGUCAACAGCCGUUCAGUACCAAGUCUCAGGGGAAACUUUGAGAUGGCCUUGCAAAGGGUAUGGUAAUAAGCUGACGGACAUGGUCCUAACCACGCAGCCAAGUCCUAAGUCAACAGAUCUUCUGUUGAUAUGGAUGCAGUUCACAGACUAAAUGUCGGUCGGGGAAGAUGUAUUCUUCUCAUAAGAUAUAGUCGGACCUCUCCUUAAUGGGAGCUAGCGGAUGAAGUGAUGCAACACUGGAGCCGCUGGGAACUAAUUUGUAUGCGAAAGUAUAUUGAUUAGUUUUGGAGUACUCGUGGUCG
Outline: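 DiMSum derived fitness as the error-weighted combination of fold changes across replicates, kanamycin versus no kanamycin, normalised to wild type. E. coli BL21(DE3) held the library, which randomised all eight P1ex-region intron nucleotides within the knt kanamycin-resistance gene on pET-22b(+). Six replicate transformations grew overnight at 37°C or 30°C on LB agar with or without 25 μg/mL kanamycin, also containing 100 μg/mL carbenicillin, 50 μM IPTG and 0.2% rhamnose, and pooled colonies were amplicon-sequenced on an Illumina HiSeq 2500.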

Row | Sequence | self-splicing fitness (ln) (30 °C) | self-splicing fitness (ln) (37 °C)
1 | AACUAGCAAUAUUACGGUCG | -0.193 ± 0.062 | 0.193 ± 0.085
2 | AACUAGCAAUAUUACGGUGA | -1.58 ± 0.073 | -0.833 ± 0.099
3 | AACUAGCAAUAUUACGUAAU | -1.82 ± 0.098 | -0.948 ± 0.099
4 | AACUAGCAAUAUUACGUAGC | -4.04 ± 0.26 | -2.12 ± 0.21
5 | AACUAGCAAUAUUACGUCGC | -2.63 ± 0.11 | -1.08 ± 0.14
6 | AACUAGCAAUAUUACGUGGU | -3.36 ± 0.16 | -2.86 ± 0.23
7 | AACUAGCAAUAUUACGUUGC | -3.47 ± 0.17 | -1.9 ± 0.22
8 | AACUAGCAAUAUUACGUUGU | -3.51 ± 0.13 | -2.29 ± 0.12
9 | AAGAAGCAAUAUUACGACUC | 0.456 ± 0.13 | 0.487 ± 0.18
10 | AAGAAGCAAUAUUACGAUAG | -3.6 ± 0.28 | -1.87 ± 0.2
11 | AAGAAGCAAUAUUACGCAAA | -2.71 ± 0.24 | -0.539 ± 0.16
12 | AAGAAGCAAUAUUACGCAAC | -1.53 ± 0.12 | -2.1 ± 0.18
13 | AAGAAGCAAUAUUACGCACA | -0.267 ± 0.082 | -0.233 ± 0.097
14 | AAGAAGCAAUAUUACGCUCC | -2.37 ± 0.2 | -0.643 ± 0.18
15 | AAGAAGCAAUAUUACGGAAG | -2.77 ± 0.094 | -1.68 ± 0.11
16 | AAGAAGCAAUAUUACGGCAA | -0.128 ± 0.096 | -0.201 ± 0.13
17 | AAGAAGCAAUAUUACGGCGA | -0.584 ± 0.071 | -0.285 ± 0.088
18 | AAGAAGCAAUAUUACGGGGA | -3.37 ± 0.29 | -2.18 ± 0.17
19 | AAGAAGCAAUAUUACGGGGU | -4.04 ± 0.29 | -2.64 ± 0.2

Row | Sequence | self-splicing fitness (ln) (30 °C) | self-splicing fitness (ln) (37 °C)
20 | AAGAAGCAAUAUUACGGUAU | -2.08 ± 0.073 | -0.974 ± 0.084
21 | AAGAAGCAAUAUUACGGUCU | -0.564 ± 0.066 | -0.233 ± 0.1
22 | AAGAAGCAAUAUUACGGUGU | -1.99 ± 0.072 | -1.65 ± 0.086
23 | AAGAAGCAAUAUUACGGUUA | -0.783 ± 0.15 | -0.983 ± 0.12
24 | AAGAAGCAAUAUUACGUAGA | -2.64 ± 0.13 | -1.01 ± 0.11
25 | AAGAAGCAAUAUUACGUCUG | -0.345 ± 0.054 | 0.0995 ± 0.071
26 | AAGAAGCAAUAUUACGUGUG | -2.3 ± 0.09 | -0.663 ± 0.081
27 | AAGCAGCAAUAUUACGAAGU | -3.3 ± 0.13 | -1.34 ± 0.13
28 | AAGCAGCAAUAUUACGAAUU | -0.851 ± 0.069 | 0.12 ± 0.099
29 | AAGCAGCAAUAUUACGAGCC | -3.37 ± 0.34 | -1.2 ± 0.24
30 | AAGCAGCAAUAUUACGAGGC | -1.38 ± 0.13 | -2.17 ± 0.22
31 | AAGCAGCAAUAUUACGAGGU | -3.55 ± 0.16 | -2.65 ± 0.19
32 | AAGCAGCAAUAUUACGAUGG | -2.99 ± 0.13 | -1.84 ± 0.14
33 | AAGCAGCAAUAUUACGAUGU | -1.3 ± 0.06 | -0.566 ± 0.078
34 | AAGCAGCAAUAUUACGCACG | -1.15 ± 0.079 | -0.574 ± 0.095
35 | AAGCAGCAAUAUUACGCAUC | -2.72 ± 0.18 | –
36 | AAGCAGCAAUAUUACGCCCU | -0.309 ± 0.14 | 0.0798 ± 0.18
37 | AAGCAGCAAUAUUACGCCGG | -1.52 ± 0.11 | -0.994 ± 0.17
38 | AAGCAGCAAUAUUACGCCUC | – | -1.22 ± 0.4
